Entries after “also recorded” stand apart in the source; their conditions may differ.
What was measured:
[1] = tested on: Aβ25−35; experiment: Thioflavin-T assay, Aβ25−35 aggregation (co-incubation); assay type: biochemical; conditions: 1:250 protein/Aβ25−35 molar ratio (4 μM / 1 mM), up to 72 h, 4°C, ThT read at 485 nm, n = 6
Procedure: The amyloid peptide Aβ25−35 was synthesized by conventional solid‐phase chemistry (Atherton & Sheppard, [1990]), and stored at −20°C. The peptide was resuspended in 1,1,1,3,3,3‐Hexafluoro‐2‐propanol (Sigma®, catalog number #105228), incubated for 1 h with gentle shaking at 4°C, then aliquoted and dried in speedVac for 20 min. The aliquots were stored under a vacuum glass bell. The day before being used, aliquots were resuspended in phosphate‐buffered saline (PBS) at a final concentration of 1 mM, incubated in a ultrasonic bath on ice for 30 min to induce aggregation, followed by gentle shaking at 4°C overnight. Aβ25−35 was diluted in culture medium at a final concentration of 30 μM for cell treatments. Aggregation of Aβ25−35 in the presence of ERp57 was obtained as follows: dried aliquots of Aβ25−35 were resuspended in PBS. […]
Thioflavin‐T assay was used to assess the aggregation of the Aβ25−35. […] The assay was performed using a spectrofluorometer Spex Fluoromax® at 25°C; the excitation wavelength was set at 440 nm (5 nm band width) and the fluorescence was measured between 450 and 520 nm (5 nm band width) (Francioso et al., [2020]).

[2] = tested on: pre‐aggregated Aβ25−35; experiment: Thioflavin-T assay, reversal of pre-aggregated Aβ25−35; assay type: biochemical; conditions: Aβ25−35 aggregated alone 24 h, then 72 h with increasing concentrations of ERp57; n = 3
Procedure: Thioflavin‐T assay was used to assess the aggregation of the Aβ25−35. Thioflavin‐T (catalog number #T3516) was prepared in glycine buffer (0.05 M, pH 8.5) (catalog number #G8898), to a final concentration of 5 μM, in order to be saturated by Aβ25−35 (10 μM). Aβ25−35 was aggregated either alone or in the presence of 0.04 μM ERp57 or GST recombinant protein (in a 1:250 ratio). The assay was performed using a spectrofluorometer Spex Fluoromax® at 25°C; the excitation wavelength was set at 440 nm (5 nm band width) and the fluorescence was measured between 450 and 520 nm (5 nm band width) (Francioso et al., [2020]).
Having ascertained the ability of ERp57 to block the aggregation process, we wondered if the protein was able to reverse a preformed amyloid fibril into oligomeric/monomeric forms. To understand this, we aggregated Aβ25−35 alone for 24 h and then incubated it for 72 h in the presence of increasing concentrations of ERp57, assessing every 24 h the state of aggregation by thioflavin T assay (Figure 5c). […] Probably this phenomenon could be because of the fact that the presence of a protein capable of interacting with Aβ25−35 (given the previous experiments) can favor to the maintenance of Aβ25−35 in solution, facilitating the process of aggregation. […]

[3] = tested on: SH‐SY5Y cells; experiment: MTT cell viability assay; assay type: cell-based, human; conditions: MTT, n = 4
Procedure: For the cell viability experiments, 96‐well plates were seeded with 10 000 cells/well. After 24 h, cells were treated with 30 μM Aβ25−35 aggregated for 72 h in the presence or in the absence of 0.12 μM of ERp57 or GST recombinant proteins (in a 1:250 ratio), in a final volume of 150 μl per well. Plates were incubated for 24 h in an incubator at 37°C, 5% of CO2, and 99% RH. Thereafter, 20 μl of (3‐[4,5‐Dimethylthiazol‐2‐yl]‐2,5‐Diphenyltetrazolium Bromide) (MTT) dye (stock solution 5 mg/ml in PBS) (catalog number #M2003) was added to the wells and incubated for additional 2 h at 37°C and 5% CO2. Water‐insoluble formazan crystals were dissolved in 100 μl of DMSO (catalog number #472301). For spectrophotometric measurements, Appliscan® plate reader (Thermo scientific) was used at the wavelength 570 nm, with reference set at 690 nm.

[4] = tested on: α‐synuclein; conditions: 1:50 molar ratio; ref Serrano et al., [2020]; cited from earlier work
Source text: We thus hypothesize that the mechanism by which ERp57 exerts its neuroprotective action resides in ERp57 impairment of peptide aggregation, rather than in disaggregation of existing fibrils. The inhibition of the aggregation was induced by low amounts of ERp57 protein, present in the reaction mixture in a very low molar ratio compared to the peptide (1:250), in line with the experiments conducted by Serr ...

[5] = tested on: c99 fragment of APP; conditions: c99 generated by β-secretase; ref Selivanova et al., [2007]; cited from earlier work
Source text: (§1) As previously reported (Williams, [2006]), it is known that ERp57 together with calreticulin and calnexin forms a complex capable of interacting with glycoproteins, including APP, at the […] level, and therefore it can be hypothesized that the contact regions between ERp57 and APP are maintained at least in part also by Aβ, despite the cuts suffered by the secretases.

[6] = tested on: full‐length APP; conditions: permeabilized cells; ref Selivanova et al., [2007]; cited from earlier work
Source text: as §1

[7] = tested on: Aβ peptide; conditions: cerebrospinal fluid of healthy people; ref Erickson et al., [2005]; cited from earlier work
Source text: ERp57 is an endoplasmic reticulum disulfide isomerase which modulates folding of newly synthesized glycoproteins by recognizing and interacting with peptides or incorrectly folded proteins, thereby promoting formation of disulfide bonds and correct protein folding (Torres et al., [2015]). Conversely, Aβ is a small peptide that, because of its intrinsic characteristics, tends to aggregate and to escape the ER‐associated degradation process (ERAD) (Holtzman, [2013]). Eventually, monomeric Aβ is released out of the cell and begins its slow aggregation into fibrils that will form the template for ...

B1: ERp57: thiol oxidoreductase with Protein Disulfide Isomerase activity; human recombinant PDIA3 expressed in E. coli (protein)
chain: SDVLELTDDNFESRISDTGSAGLMLVEFFAPWCGHCKRLAPEYEAAATRLKGIVPLAKVDCTANTNTCNKYGVSGYPTLKIFRDGEEAGAYDGPRTADGIVSHLKKQAGPASVPLRTEEEFKKFISDKDASIVGFFDDSFSEAHSEFLKAASNLRDNYRFAHTNVESLVNEYDDNGEGIILFRPSHLTNKFEDKTVAYTEQKMTSGKIKKFIQENIFGICPHMTEDNKDLIQGKDLLIAYYDVDYEKNAKGSNYWRNRVMMVAKKFLDAGHKLNFAVASRKTFSHELSDFGLESTAGEIPVVAIRTAKGEKFVMQEEFSRDGKALERFLQDYFDGNLKRYLKSEPIPESNDGPVKVVVAENFDEIVNNENKDVLIEFYAPWCGHCKNLEPKYKELGEKLSKDPNIVIAKMDATANDVPSPYEVRGFPTIYFSPANKKLNPKKYEGGRELSDFISYLQREATNPPVIQEEKPKKKKKAQEDL
effect on Aβ25−35 aggregation (ThT fluorescence) [1]: a marked reduction in the fluorescence signal; also recorded: completely blocks this process; also recorded: strongly reduced the aggregation of the peptide | ThT fluorescence intensity of pre-aggregated Aβ25−35 [2]: increased in a dose‐dependent manner | reversal of preformed amyloid [2]: not able to reverse the amyloid aggregation; also recorded: not able to disassemble pre‐aggregated Aβ25−35; also recorded: fails to disaggregate a fibril | cell viability (with Aβ25−35) ([3]; 30 μM Aβ25−35 aggregated 72 h with 0.12 μM protein (1:250), 24 h treatment): counteracts the toxic effects of Aβ25−35 and restores cellular viability; also recorded: significant increase in cell viability; also recorded: their viability was preserved | cell viability (protein alone) ([3]; protein alone, without Aβ25−35, 24 h): no effect on cell viability | effect on α-synuclein aggregation [4]: able to reduce the aggregation of α‐synuclein in a very efficient manner | interaction with c99 fragment of APP [5]: does not interact with the c99 fragment of APP | interaction with full-length APP [6]: interacts with full‐length APP | complex of ERp57 with Aβ [7]: linked to Aβ in the cerebrospinal fluid of healthy people

— paper PMC9543391, “ERp57 chaperon protein protects neuronal cells from Aβ‐induced toxicity” (Journal of Neurochemistry, 2022)
